Patent US5296352

Biological target: recombinant hirudin variant HV1 (Hirudo medicinalis)

Row | Substance | extent of digestion (cleavage of rHV1) [%]
1 | Staphylococcus aureus strain V8 protease (from UniProt P0C1U8) (enzyme) | 97
2 | lysyl endopeptidase (enzyme) | 100
